Publication PMC11538452 (Nature Communications, 2024)
Where two headings read alike, the source gives them in different places.

Assays:
[1] = target: T1, human CD40-Fc (human, UniProt P25942); test: SPR; wildtype against deimmunized variant on the CD40 protein (Supplementary Fig. 3B); format of this experiment not told in what was shown; settings: both partners purified
T1 construct: also called hCD40-Fc

[2] = target: T2, pTag_(18aa) (original 18 amino acid peptide tag) (Clostridium tetani, tetanus …)
[3] = target: T3, pTag9aa (free, without cargo) (Clostridium tetani, tetanus …)
[4] = target: pTag_(12aa) (Clostridium tetani, tetanus …); test: SPR; […]; 25 °C, HBS with 0.05% Tween20, pH 7.5; Biacore T200, 1:1 Langmuir model; settings: both partners purified
[5] = target: T2, pTag_(18aa) (original 18 amino acid …); test: as above; settings: both partners purified
[6] = target: T3, pTag9aa (free, without cargo); test: as above; settings: both partners purified

T1 sequence (P25942 21-193): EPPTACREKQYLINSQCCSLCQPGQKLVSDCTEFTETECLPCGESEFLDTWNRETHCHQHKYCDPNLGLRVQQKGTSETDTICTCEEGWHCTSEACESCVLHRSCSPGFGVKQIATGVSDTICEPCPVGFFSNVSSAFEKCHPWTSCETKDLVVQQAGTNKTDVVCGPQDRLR

B1: A9 anti-CD40 antibody, wildtype variant (before deimmunization) (antibody, V domains shown)
VH: EVQLLESGGGLVQPGGSLRLSCAASGFTFSSYAMSWVRQAPGKGLEWVSGISGYSGSTYYADSVKGRFTISRDNSKNTLYLQMNSLRAEDTAVYYCARYYSYYGYYYFDYWGQGTLVTVSS
VL: DIQMTQSPSSLSASVGDRVTITCRASQSISSYLNWYQQKPGKAPKLLIYAASSLQSGVPSRFSGSGSGTDFTLTISSLQPEDFATYYCQQGYPYPFTFGQGTKLEIK
notes: also called WT; original variant
Question: With B1 as the binder, how does the Kd [1] read?
Answer: The Kd was 3.4 nM.

B2: BiA9*2_HF (antibody, V domains shown)
VH: QVQLVQSGAEVKKPGASVKVSCKASGFNIKDFNIHWVRQAPGQGLEWIGRIDPENGDAEYVPKFQGRVTMTRDTSTSTVYMELSSLRSEDTAVYYCTTGSYDLDVEYWGQGTLVTVSS
VL: DIQMTQSPSSLSASVGDRVTITCHASQNINVWLSWYQQKPGKAPKLLIYKASTLHTGVPSRFSGSGSGTDFTLTISSLQPEDFATYYCQQGQSYPLTFGQGTKLEIK
Question: What does the source list for B2?
Answer: binding result [2]: binds; binding result [3]: binds

B3:  (scFv, V domains shown)
VH: QVQLVQSGAEVKKPGASVKVSCKASGFNIKDFNIHWVRQAPGQGLEWIGRIDPESGDAEYVPKFQGRVTMTRDTSTSTVYMELSSLRSEDTAVYYCTTGSYDLDVEYWGQGTLVTVSS
VL: DIQMTQSPSSLSASVGDRVTITCHASQNINVWLSWYQQKPGKAPKLLIYKASTLHTGVPSRFSGSGSGTDFTLTISSLQPEDFATYYCQQGQSYPLTFGQGTKLEIK
notes: also called humanized scFv; humanized single chain clone SG; source: E. coli, purified (Ni-NTA)
Question: Which results are given for B3?
Answer: binding result [4]: binds; binding result [5]: binds; binding result [6]: binds

B4: murine anti-pTag scFv (scFv, V domains shown)
VH: EVRLLQSGAALVRPGASVKLSCTASGFNIKDFNIHWVKQRPEQGLEWIGRIDPENGDAEYVPKFQVRATMTTDTSSNTVYLHLSSLTSGDTAVYYCTTGSYDLDVEYWGQGTTLTVSS
VL: ELQMTQSPSSLSASLGDTVTITCHASQNINVWLSWYQQRPGNIPKLLIYKASTLHTGVPSRFRGSGSGTGFTLTISSLQPEDIATYYCQQGQSYPLTFGAGTKLELK
notes: also called murine scFv; mscFv
Question: Does B4 bind [4]?
Answer: Result: binds

Question: What about the Kd [5] of the same binder?
Answer: Its Kd is 4 nM.
